Results as given in publication PMC6289497 (ACS Omega, 2018).
Changes are numbered by the printed parent chain. Numbers in names are those of the source.

Legend:
[1] = biological target: human metapneumovirus (HMPV) strain CAN97-83 M2-1 protein (human metapneumovirus strain CAN97-83); test: Gdm.HCl-induced equilibrium denaturation
[2] = biological target: the molecule itself; test: SEC

## human metapneumovirus (HMPV) strain CAN97-83 M2-1 protein (natural protein)
[1]
  stoichiometry N: 4

B1: H25A RSV-M2-1 (natural protein)
chain: MSRRNPCKFEIRGHCLNGKRCHFSANYFEWPPHALLVRQNFMLNRILKSMDKSIDTLSEISGAAELDRTEEYALGVVGVLESYIGSINNITKQSACVAMSKLLTELNSDDIKKLRDNEELNSPKIRVYNTVISYIESNRKNNKQTIHLLKRLPADVLKKTIKNTLDIHKSITINNPKESTVSDTNDHAKNNDTT
[2]
  binding result: binds

B2: H25C RSV-M2-1 (natural protein)
chain: B1 chain with A25C
[2]
  binding result: binds
